Source: publication PMC8800115 (2021)

Molecular target: K63-linked tetraubiquitin (UniProt P0CG48 1-76, G76 to K63 isopeptide bonds between adjacent ubiquitins)
Experiment: ITC

B1: ASCC2 CUE domain (construct of the ITC experiments of Figure 2) (domain or fragment)
chain: AAVGPAMCGVELDSLISQVKDLLPDLGEGFILACLEYYHYDPEQVINNILEERLAPTLSQLDRNLDREM
B1 was tested, and the Kd was 2100 nM.
